Results reported in patent US8147817B2, “IL-33 in the treatment and diagnosis of diseases and disorders” (The Brigham and Women's Hospital, Inc., priority 2006, dated 2012).
Entries after “also recorded” stand apart in the source; their conditions may differ.

Experiments:
[1] = tested on: rat neonatal cardiomyocytes; test: [3H]-leucine incorporation assay (hypertrophy); assay type: cell-based
Description: Leucine incorporation in rat neonatal cardiomyocytes was detected as previously described (7). Cells were pre-incubated with 1.0 μCi/mL [^3H]leucine for 24 hours. The medium was aspirated, and the cells were washed twice with ice-cold PBS and once with 10% trichloroacetic acid (TCA; Sigma) and fixed for 45 minutes at 4° C. with 10% TCA. After washing twice with cold 95% ethanol, radioactivity incorporated into the TCA-precipitable material was determined by liquid scintillation counting after solubilization in 0.15N NaOH.
Leucine incorporation in rat neonatal cardiomyocytes was detected as previously described (46). Cells were treated with 1.0 μCi/ml [^3H]-leucine for 24 hours, washed, fixed with 10% trichloroacetate (Sigma) for 45 minutes at 4° C., and then radioactivity was determined by liquid scintillation counting. An anti-mouse ST2 antibody (R&D) was used as a functional neutralizing antibody (12). A normal rat IgG2a (Sigma) and mouse IL-1Rrp2 (R&D) were used as controls for anti-mouse ST2 antibody (R&D) and mouse soluble ST2 (R&D), respectively.

NF-κB [2] = test: NF-κB nuclear binding activity by EMSA in cardiomyocytes; assay type: cell-based, rat
Description: (§1) Electromobility shift assays were performed as described previously (8). Cells were lysed for 10 minutes on ice in a solution containing 10 mM HEPES (pH 7.6), 15 mM KCl, 2 mM MgCl2, 0.1 mM ethylenediamine tetraacetic acid (EDTA), 1 mM dithiothreitol (DTT), 0.5 mM phenylmethylsulphonylfluoride (PMSF), 10 μg/mL leupeptin and 0.2% Nonident P-40. Dishes were gently scraped, and nuclei were collected by centrifugation at 800 g for 30 seconds and then suspended in a solution of 50 mM HEPES, 400 mM KCl, 0.1 mM EDTA, 10% glycerol, 1 mM DTT, 0.5 mM PMSF and 10 μg/mL leupeptin. The mixture was incubated on ice for 30 minutes, and the supernatant was collected after centrifugation for 15 minutes at 400 g. Binding reactions were performed with 5 or 10 μg of nuclear protein in 10 mM Tris, 1 mM DTT, 1 mM EDTA, 5% glycerol, 0.1% Triton X-100, 1 mg poly(dIdC), 5 μg bovine serum albumin (BSA) and approximately 10,000 cpm of −32P-labeled oligonucleotide. The binding reactions for AP-1 activity also contained 5 mM MgCl2. Control reaction mixtures contained a 100-fold excess of unlabeled oligonucleotide and were incubated with nuclear extracts of IL-1β-treated cells. DNA complexes were separated on a 4% nondenaturing polyacrylamide gel in Tris-HCl (6.7 mM), EDTA (1 mM) and ammonium acetate (3.3 mM). The oligonucleotides contained the NF-B binding site (sequence: 5′-AGTTGAGGGGACTTTCCCAGGC-3′ (SEQ ID NO: 15)) and were labeled by standard procedures.
EMSAs were performed as described previously (47). Cells were lysed for 10 minutes on ice in 10 mM HEPES (pH 7.6), 15 mM KCl, 2 mM MgCl2, 0.1 mM EDTA, 1 mM DTT, 0.5 mM PMSF, 10 μg/mL leupeptin, and 0.2% Nonident P-40. Dishes were gently scraped, and nuclei were collected by centrifugation at 800 g for 30 seconds and then suspended in a solution of 50 mM HEPES, 400 mM KCl, 0.1 mM EDTA, 10% glycerol, 1 mM DTT, 0.5 mM PMSF, and 10 μg/mL leupeptin. The mixture was incubated on ice for 30 minutes, and the supernatant was collected after centrifugation for 15 minutes at 400 g. Binding reactions were performed with 5 or 10 μg of nuclear protein in 10 mM Tris, 1 mM DTT, 1 mM EDTA, 5% glycerol, 0.1% Triton X-100, 1 mg poly(dIdC), […] BSA, and 10,000 cpm of [^32P]-labeled oligonucleotide. The specific NF-κB consensus oligonucleotides were 5′-[…]-3′ (SEQ ID NO: 15) and 5′-[…]-3′ (SEQ ID NO: 18) (Promega). Positive and negative control mixtures as well as specific competition mixtures were made as recommended by the manufacturer's instructions, using binding buffer with positive samples, labeled NF-κB oligonucleotides and 10-fold excess of cold NF-κB consensus oligonucleotides for specific competition. DNA complexes were separated on a 6% nondenaturing polyacrylamide gel in Tris-HCl (6.7 mM), EDTA (1 mM), and ammonium acetate (3.3 mM).

NF-κB [3] = test: NF-κB nuclear binding activity by EMSA in cardiac fibroblasts; assay type: cell-based, rat; details: angiotensin-II 1 μM, phenylephrine 50 μM, IL-33 10 ng/ml
Description: as §1
EMSAs were performed as described previously (47). Cells were lysed for 10 minutes on ice in 10 mM HEPES (pH 7.6), 15 mM KCl, 2 mM MgCl2, 0.1 mM EDTA, 1 mM DTT, 0.5 mM PMSF, 10 μg/mL leupeptin, and 0.2% Nonident P-40. Dishes were gently scraped, and nuclei were collected by centrifugation at 800 g for 30 seconds and then suspended in a solution of 50 mM HEPES, 400 mM KCl, 0.1 mM EDTA, 10% glycerol, 1 mM DTT, 0.5 mM PMSF, and 10 μg/mL leupeptin. The mixture was incubated on ice for 30 minutes, and the supernatant was collected after centrifugation for 15 minutes at 400 g. […]

cardiomyocytes = test: Oxidative stress assay (DCFDA, ROS generation); assay type: cell-based, rat; details: co-treatment with IL-33
Description: An assay to detect oxidative stress was performed as reported previously (48). Cardiomyocytes were incubated with 2,7-dichlorodihydrofluorecein diacetate (DCFDA) for 45 min, washed in phosphate-buffered saline, and fluorescence intensity was measured using a fluorometer (PerkinElmer Life Science) at 595 nm.

[4] = tested on: WT and ST2KO mice after MI; test: Experimental myocardial infarction with IL-33 treatment; assay type: in vivo, mouse; details: recombinant rat IL-33 intraperitoneal daily up to 4 weeks
Text: 86 mice with wild-type (WT) or ST2 knockout (ST2KO) genotypes were randomized into 4 subgroups, Sham or MI operated, and with or without IL-33 treatment. Experimental myocardial infraction operation was done by permanent occlusion of the left anterior coronary artery via open-chest approach under deep anesthesia. IL-33 treatment was done by a single 2 microgram/kg on each day, intraperitoneal, of recombinant rat IL-33 protein, from the day of operation up to 4 weeks.
MI was produced on 8-10 week old mice.

cardiac fibroblasts = test: Cardiac fibroblast proliferation; assay type: cell-based, rat
Description: A 3-(4,5-dimethylthiazol-2-yl)-5-(3-carboxymethoxyphenyl)-2-(4-sulfophenyl)-2H-tetrazolium salt (MTS) assay was performed with CellTiter 96 AQueous One Solution Cell Proliferation Assay kit (Promega, Madison, Wis.). Actual cell number in each group was also counted manually after exclusion of dead cells by Trypan blue staining. Cell cycle of cardiac fibroblasts was analyzed as previously described (9). Briefly, cardiac fibroblasts were seeded at a density of 1.5×10^5 cells per 60 mm dishes and serum-starved for 24 hrs. After treatment, cells were trypsinized, fixed in 80% ethanol at −20° C. and labeled with 50 ug/ml propidium iodide (Sigma) with 50 ug/ml RNaseA (Sigma). Then propidium iodide fluorescence was analyzed by flow cytometer (CYTOMICS FC500, Beckman Coulter, Fullerton, Calif.). Total population was initially gated to remove cell debris, and 1×10^4 cells were assessed for each DNA histogram using CXP software (Beckman Coulter).

B1: IL-33: recombinant mature rat IL-33, starting with amino acid 109 of the full-length protein, N-terminal His tag (GenBank BC081993) (protein)
chain: SIQGTSLLTESCALSTYNDQSVSFVLENGCYVINVEDCGKNQEKDKVLLRYYESSFPAQSGDGVDGKKLMVNMSPIKDTDIWLNANDKDYSVELQKGDVSPPDQAFFVLHKKSSDFVSFECKNLPGTYIGVKDNQLALVEENDESCNNIMFKLSKM
modifications: left off: small tags and cut ends
hypertrophy (leucine uptake) induced by angiotensin-II or phenylephrine ([1]; co-treatment with IL-33): can block cardiac hypertrophy; also recorded: potently blocked cardiomyocyte hypertrophy; also recorded: abrogates angiotensin-II- and phenylephrine-induced hypertrophy in cardiomyocytes in vitro; also recorded: blocks hypertrophy induced by angiotensin II; also recorded: dose dependent ability to decrease hypertrophy induced by angiotensin II and phenylephrine; also recorded: can antagonize hypertrophic effects of angiotensin II and phenylephrine; also recorded: blocked angiotensin-II or phenylephrine-induced leucine uptake in a dose-dependent manner | hypertrophy (leucine uptake), IL-33 alone ([1]; no other stimulus): modest, dose-dependent pro-hypertrophic trend that was not statistically significant; also recorded: modest hypertrophic effect; also recorded: non-significant trend toward stimulating hypertrophy | reduction of NF-κB nuclear binding activity induced by PDGF-BB or TNF-α (NF-κB [2]; PDGF-BB (10 ng/ml) or TNF-α (10 ng/ml), IL-33 10 ng/ml): not observed; also recorded: did not block | NF-κB activation by agent alone (NF-κB [2]; cardiomyocytes, angiotensin-II 1 μM, phenylephrine 50 μM, IL-33 10 ng/ml): independently activated NF-κB in both cell types; also recorded: mildly activated NF-κB | angiotensin-II- or phenylephrine-induced NF-κB activation (NF-κB [2]; cardiomyocytes, co-treatment with IL-33 10 ng/ml): markedly attenuated | NF-κB activation by agent alone (NF-κB [3]): independently activated NF-κB in both cell types | ROS generation in the presence of angiotensin-II or phenylephrine (cardiomyocytes): significantly decreased the generation of ROS; also recorded: inhibited by IL-33 in cardiomyocytes | survival after infarction ([4]; ST2KO mice): eliminates this benefit | survival after infarction ([4]; WT mice): improves survival after infarction | cardiac fibroblast proliferation, IL-33 alone (cardiac fibroblasts): can induce cardiac fibroblast proliferation | cardiac fibroblast proliferation induced by angiotensin II (cardiac fibroblasts; co-treatment with IL-33): antagonizes cardiac fibroblast proliferation induced by angiotensin II; also recorded: antagonizes the proliferation induced by angiotensin II
